Results taken from article PMC7311918, “Structures of Human Antibodies Bound to SARS-CoV-2 Spike Reveal Common Epitopes and Recurrent Features of Antibodies” (Cell, 2020).
“And” between values parts separate entries of the source, which are not always exact repeats. Identical values can stand only once.

Biological target: T1, SARS-CoV-2 S 2P trimer (S ectodomain, residues 16-1206) (SARS-CoV-2, early isolate GenBank …, UniProt P0DTC2, stabilised)
T1 construct: also called SARS-CoV-2 S protein; SARS-CoV-2 S trimer
Assay: cryo-EM structure
Settings: both partners purified

B1: C105 Fab (Fab, V domains shown)
VH: QVQLVESGGGLIQPGGSLRLSCAASGFTVSSNYMSWVRQAPGKGLEWVSVIYSGGSTYYADSVKGRFTISRDNSKNTLYLQMNSLRAEDTAVYYCARGEGWELPYDYWGQGTLVTVSS
VL: QSALTQPPSASGSPGQSVTISCTGTSSDVGGYKYVSWYQQHPGKAPKLMIYEVSKRPSGVPDRFSGSKSGNTASLTVSGLQAEDEADYYCSSYEGSNNFVVFGGGTKLTVL
notes: also called mAb C105
Q: B1 was tested. Which “stoichiometry N” value did it give?
A: 2 Fabs per S trimer and 3 Fabs per S trimer
